Results: PMC8689070

Key:
[1] = tested on: CovR-P (SP-TyK-phosphorylated) (Streptococcus pyogenes (M1T1 5448?; locus numbering MGAS5005)); test: EMSA
[2] = tested on: CovR (non-phosphorylated) (Streptococcus pyogenes (M1T1 5448?; locus numbering MGAS5005)); test: EMSA

PcovR
binding signal (fold vs non-phosphorylated CovR) [1]: 4 | binding signal (fold of CovR-P binding) [2]: 0.25
